These results are taken from patent US11565003B2, “Mechanical opening of lipid bilayers by molecular nanomachines” (William Marsh Rice University, priority 2016, dated 2023).

Starred links: 1 amine or outer side, 2 acyl side, 3 side chain; linkers in the order of their positions; H or OH if unused. Positions of bridges follow the written chain, without caps; N, C: chain ends. Residues, ends and D or L forms follow the SMILES beside them. Chains are numbered I, II in the order given. X2 = C[C@@H]1Cc2ccc3ccccc3c2C1=C1c2cc(C#CCCn3cc(C(=O)[*:1])nn3)ccc2Sc2ccc(C#CCCn3cc(C(=O)[*:2])nn3)cc21

The data set deals with PC-3 cells. Description: 24 hours incubation without UV: proliferation and apoptosis (Annexin V, Image Cytometry). It is filed as cell-based, human. On the procedure:
When PC-3 cells are loaded at 0.5 or 1.0 μM with 9 or 10, washed three times (Method B) or unwashed (Method A) after 24 hours of incubation, the cells visually appear without major signs of toxicity. However, the cells which had been incubated with 9 or 10 over 24 hours were not dividing as prolifically. The cultures appear to be populated ˜25% less in the presence of 9 and 20% of the cells in 10 compared to control untreated cells (FIGS. 12A-E).
In order to further investigate this point, these cells were collected via gentle centrifugation and re-suspended in fresh PBS and analyzed by Image Cytometry. Using Annexin V, these cells were all confirmed to show signs of apoptosis at 93±5%. This is in contrast to the remaining coverslip surface-bound cells that appear healthy.
These latter types of non-apoptotic cells show identical percentage of necrosis acceleration upon subsequent UV-activation of the cell-surface bound nanomachines compared to their shorter incubation time analogues. Thus, it appears that, upon 24 hour incubation, a noticeable amount of cells have nanomachines 9 and 10 either bound to vital cell membrane channels or transport proteins or they are internalized, subsequently shutting down some natural homeostatic mechanisms that leads to programmed cell death (FIGS. 12A-E). Furthermore, this is not the case with shorter incubation times regardless of whether Method A or B is used.

Turning to `CC(C)[C@H](NC(=O)[C@H](CCCNC(=N)N)NC(=O)[C@@H](NC(=O)[C@H](CC(N)=O)NC(=O)[C@H](CO)NC(=O)c1cn(CCC#Cc2ccc3c(c2)C(=C2c4c(ccc5ccccc45)C[C@H]2C)c2cc(C#CCCn4cc(C(=O)N[C@@H](CO)C(=O)N[C@@H](CC(N)=O)C(=O)N[C@H](C(=O)N[C@@H](CCCNC(=N)N)C(=O)N[C@H](C(=O)N[C@@H](C)C(=O)N5CCC[C@H]5C(=O)O)C(C)C)[C@@H](C)O)nn4)ccc2S3)nn1)[C@@H](C)O)C(=O)N[C@@H](C)C(=O)N1CCC[C@H]1C(=O)O` [Compound 9] (I: SNTRVAP-OH / II: SNTRVAP-OH; linker I:N-II:N via X2), the “cultures populated less compared to control untreated cells” value (PC-3, 0.5 or 1.0 μM, 24 hours of incubation, no UV) is reported as approximately 25%. Besides, where the note is “PC-3, 24 hours incubation, cells collected from culture media”, the “mobilized cells showing signs of apoptosis (Annexin V)” value worked out at 93±5%.
